Measured values taken from US20200199241A1.

What was measured:
[1] = biological target: human FcγRIIIa(F) (human) (UniProt P08637); assay: SPR, captured antibody
FcγRIIb (human) [2] = biological target: FcγRIIb (human) (UniProt P31994); assay: SPR, captured antibody
FcγRIIb (human) [3] = biological target: FcγRIIb (human) (UniProt P31994); assay: SPR (Biacore)
human FcγRIIa(H) (human) = human FcγRIIa(H) (human) (UniProt P12318); assay: SPR (Biacore)
human FcγRIIa(R) (human) = human FcγRIIa(R) (human) (UniProt P12318); assay: SPR (Biacore)
human FcγRIIa(R) (human), sequence (P12318 other isoform, or with tags, fused parts or gaps limits assumed): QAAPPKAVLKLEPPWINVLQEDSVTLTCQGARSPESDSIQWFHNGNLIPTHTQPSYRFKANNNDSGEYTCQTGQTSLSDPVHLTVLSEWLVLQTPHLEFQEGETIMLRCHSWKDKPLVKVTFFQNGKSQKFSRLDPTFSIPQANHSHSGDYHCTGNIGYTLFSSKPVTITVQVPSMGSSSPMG

[4] = biological target: human FcγRIIIa(F) (human) (UniProt P08637); assay: SPR (Biacore)

human FcγRIIIa(F) (human), sequence (P08637 other isoform, or with tags, fused parts or gaps limits assumed): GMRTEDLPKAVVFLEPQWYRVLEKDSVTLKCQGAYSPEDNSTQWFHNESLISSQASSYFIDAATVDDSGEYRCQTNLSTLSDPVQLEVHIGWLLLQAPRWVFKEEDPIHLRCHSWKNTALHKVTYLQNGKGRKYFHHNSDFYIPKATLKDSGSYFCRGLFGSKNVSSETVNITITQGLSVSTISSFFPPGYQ
human FcγRIIa(H) (human), sequence (P12318 other isoform, or with tags, fused parts or gaps limits assumed): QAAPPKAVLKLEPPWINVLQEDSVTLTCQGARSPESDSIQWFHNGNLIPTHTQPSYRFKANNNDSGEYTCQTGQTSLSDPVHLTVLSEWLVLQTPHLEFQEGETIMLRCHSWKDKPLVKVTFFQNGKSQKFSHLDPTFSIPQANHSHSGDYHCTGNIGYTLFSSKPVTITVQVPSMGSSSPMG
FcγRIIb (human), sequence (P31994 43-217 limits assumed): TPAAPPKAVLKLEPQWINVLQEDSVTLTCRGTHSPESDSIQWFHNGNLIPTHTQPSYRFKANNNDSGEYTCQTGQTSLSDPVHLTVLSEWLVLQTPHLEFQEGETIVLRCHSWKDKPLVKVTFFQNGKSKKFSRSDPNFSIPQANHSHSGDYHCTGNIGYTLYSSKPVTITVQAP

Row | relative binding activity (% of GpH7-B3/GpL16-k0) [1] | Substance | also measured
1 | 11 | GpH7-B3 S298W/GpL16-k0 (antibody) | relative binding activity (% of GpH7-B3/GpL16-k0) (FcγRIIb (human) [2]): 9
2 | 21 | GpH7-B3 Y296G/GpL16-k0 (antibody) | –
3 | 35 | GpH7-B3 Y300K/GpL16-k0 (antibody) | –
4 | 0 | GpH7-B3 S298P/GpL16-k0 (antibody) | –
5 | 74 | GpH7-B3 S324K/GpL16-k0 (antibody) | –
6 | 10 | GpH7-B3 Q295W/GpL16-k0 (antibody) | –
7 | 20 | GpH7-B3 S298R/GpL16-k0 (antibody) | –
8 | 35 | GpH7-B3 S324P/GpL16-k0 (antibody) | –
9 | 49 | GpH7-B3 Q295Y/GpL16-k0 (antibody) | –
10 | 25 | GpH7-B3 S298K/GpL16-k0 (antibody) | –

The next lines start with the substance.

Row | Substance | relative binding activity (% of GpH7-B3/GpL16-k0) [1] | also measured
11 | GpH7-B3 S298Y/GpL16-k0 (antibody) | 71 | –
12 | GpH7-B3 S298G/GpL16-k0 (antibody) | 59 | –
13 | GpH7-B3 variant E269I/GpL16-k0 (antibody) | – | relative binding activity (% of GpH7-B3/GpL16-k0) (FcγRIIb (human) [3]): 9
14 | GpH7-B3 Y300R/GpL16-k0 (antibody) | 12 | –
15 | GpH7-B3 variant G237A/GpL16-k0 (antibody) | – | relative binding activity (% of GpH7-B3/GpL16-k0) (human FcγRIIa(H) (human)): 9
16 | GpH7-B3 variant S239W/GpL16-k0 (antibody) | – | relative binding activity (% of GpH7-B3/GpL16-k0) (human FcγRIIa(H) (human)): 9
17 | GpH7-B3 variant G236K/GpL16-k0 (antibody) | – | relative binding activity (% of GpH7-B3/GpL16-k0) (human FcγRIIa(R) (human)): 9
18 | GpH7-B3 variant V266F/GpL16-k0 (antibody) | – | relative binding activity (% of GpH7-B3/GpL16-k0) (human FcγRIIa(H) (human)): 8
19 | GpH7-B3 variant E269W/GpL16-k0 (antibody) | – | relative binding activity (% of GpH7-B3/GpL16-k0) [4]: 9
20 | GpH7-B3 variant E269H/GpL16-k0 (antibody) | – | relative binding activity (% of GpH7-B3/GpL16-k0) (FcγRIIb (human) [3]): 8
21 | GpH7-B3 Y300P/GpL16-k0 (antibody) | -1 | –
22 | GpH7-B3 Y296R/GpL16-k0 (antibody) | 38 | –
23 | GpH7-B3 Y296P/GpL16-k0 (antibody) | 8 | –
24 | GpH7-B3 variant S239R/GpL16-k0 (antibody) | – | relative binding activity (% of GpH7-B3/GpL16-k0) (human FcγRIIa(R) (human)): 8
25 | GpH7-B3 variant L234G/GpL16-k0 (antibody) | – | relative binding activity (% of GpH7-B3/GpL16-k0) (human FcγRIIa(R) (human)): 9
26 | GpH7-B3 Y296K/GpL16-k0 (antibody) | 21 | –
27 | GpH7-B3 variant G237P/GpL16-k0 (antibody) | – | relative binding activity (% of GpH7-B3/GpL16-k0) (human FcγRIIa(R) (human)): 8
